# Test results reported in patent US20070298448A1 (PROTEOSYS, published 2007).
# Primed or numbered codes have the meaning given here. Ends that are not written are not given here. Bz′ = not defined here; OBz = not defined here
# T1: [Cys(Bz)^84, Glu(OBz)^85]-CD4(81-92) (UniProt P01730 106-117, reading uncertain)
# T1 construct: range 81-92; Synthetic derivatized peptide
# T1 peptide: TYIC(Bz′)E(OBz)VEDQKEE
# Legend:
# [1] = biological target: T1, [Cys(Bz)^84, Glu(OBz)^85]-CD4(81-92); test: mutant immobilized on Ni-NTA-agarose beads, peptide incubated, washed, eluted with 200 mM acetic acid, MALDI-TOF
# [2] = biological target: T2, human angiotensin I (human, UniProt P01019 25-34); test: peptide incubated with mutant on Ni-NTA-agarose beads, washed, acid eluate read by MALDI-TOF
# T2 construct: also called calibration peptide; control peptide
# [3] = biological target: T3, human angiotensin II (human, UniProt P01019 25-32); test: as above
# T3 construct: also called calibration peptide; control peptide
binder,measurement,setting,value
"6xHis-Ser237Ala-V8Δ48 mutant (enzyme, also called Ser237Ala-V8Δ48 protease; anhydro mutant of the V8 proteinase) MRGSHHHHHHGSVILPNNDRHQITDTTNGHYAPVTYIQVEAPTGTFIASGVVVGKDTLLTNKHVVDATHGDPHALKAFPSAINQDNYPNGGFTAEQITKYSGEGDLAIVKFSPNEQNKHIGEVVKPATMSNNAETQVNQNITVTGYPGDKPVATMWESKGKITYLKGEAMQYDLSTTGGNAGSPVFNEKNEVIGIHWGGVPNEFNGAVFINENVRNFLKQNIEDIHFANDDQKLN",binding result,[1],binds
same,binding result,[2],no binding
same,binding result,[3],no binding
